For data set [1], the target named is T1, small trans-membrane and glycosylated protein (human) (UniProt O95332).
T1 sequence: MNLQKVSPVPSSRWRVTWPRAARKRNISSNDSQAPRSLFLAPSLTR
The data set can be described thus: protein microarray. The following applies: 3'-biotin; Microarray: 20 mM Tris pH 7.5, 5 mM MgCl2, 100 mM KCl, 0.1% Tween-20, A/T-rich ON blocker mix; EMSA: 20 mM Tris-HCl pH 8, 100 mM KCl, 200 nM ON, 0-200 nM BRD3 …. A general note: In EMSA bound probe runs differently from free probe, usually more slowly.

The target of data set [2] is La ribonucleoprotein domain family, member 1 (human) (UniProt Q6PKG0). The data set can be described thus: protein microarray. Conditions: 3'-biotin; Microarray: 20 mM Tris pH 7.5, 5 mM MgCl2, 100 mM KCl, 0.1% Tween-20, A/T-rich ON blocker mix; EMSA: 20 mM Tris-HCl pH 8, 100 mM KCl, 200 nM ON, 0-200 nM BRD3 ….

Results on 3 sequences are retold here after article PMC5996148.

Take “GGGGACAGGGGTATGGGGAGGGG [G4-3 biotinylated (CtG)]”: the binding signal in data set [1] was found to be 4.59 Z-score; in data set [2] it was 4.71 Z-score.

Regarding “GGTGACAGGGGTATGGGGAGGGG [G4-2 biotinylated (Ct1)]”, the binding signal in data set [1] was 5.81 Z-score; in data set [2], 5.37 Z-score.

“GGGAGGCTGAGGCAGG [G4-1 biotinylated (PQS2)]”: the figures for the binding signal in data set [1] and in data set [2] were 3.31 Z-score and 4.49 Z-score, respectively.
